Substitutions are numbered along the chain they refer to.
Assays:
She2p;She3p (R341E) = She2p;She3p (R341E) (Saccharomyces cerevisiae;Saccharomyces …, UniProt P36068;P38272 1-246;1-425, |R341E); test: EMSA; synergism +++; EMSA: 20 mM HEPES pH 7.8, 200 mM NaCl, 2 mM MgCl2, 2 mM DTT, 4% glycerol, 30 or 100 ug/ml yeast tRNA, 5 nM RNA, 20 C; filter binding: 20 mM HEPES pH 7.4-7.5 (7.9 with She3p), 150 mM NaCl, 2 mM MgCl2, 2 mM DTT, 30 ug/ml yeast tRNA, 0.5 nM RNA; pull-down: HNMD buffer, 4 C; details: protein: recombinant;recombinant; tags: GST tag (PreScission-cleaved);C-terminal His6; chain copies: 4;2; label: 32P; stem-loop
[1] = target: She2p;She3p (S343E S361E) (Saccharomyces cerevisiae;Saccharomyces …, UniProt P36068;P38272 1-246;1-425, |S343E;S361E); test: as above; details: protein: recombinant;recombinant; tags: GST tag (PreScission-cleaved);C-terminal His6; chain copies: 4;2; label: 32P; stem-loop
[2] = target: She2p (E183A D184A G185A);She3p (Saccharomyces cerevisiae;Saccharomyces …, UniProt P36068;P38272 1-246;1-425, E183A;D184A;G185A|); test: as above; details: protein: recombinant;recombinant; tags: GST tag (PreScission-cleaved);C-terminal His6; chain copies: 4;2; label: 32P; stem-loop
[3] = target: She2p (T191A D192A);She3p (Saccharomyces cerevisiae;Saccharomyces …, UniProt P36068;P38272 1-246;1-425, T191A;D192A|); test: as above; details: protein: recombinant;recombinant; tags: GST tag (PreScission-cleaved);C-terminal His6; chain copies: 4;2; label: 32P; stem-loop
She3p (S348E) = target: T1, She3p (S348E) (Saccharomyces cerevisiae, UniProt P38272 1-425, S348E); test: EMSA; +++; EMSA: 20 mM HEPES pH 7.8, 200 mM NaCl, 2 mM MgCl2, 2 mM DTT, 4% glycerol, 30 or 100 ug/ml yeast tRNA, 5 nM RNA, 20 C; filter binding: 20 mM HEPES pH 7.4-7.5 (7.9 with She3p), 150 mM NaCl, 2 mM MgCl2, 2 mM DTT, 30 ug/ml yeast tRNA, 0.5 nM RNA; pull-down: HNMD buffer, 4 C; details: protein: recombinant; tags: C-terminal His6; label: 32P; stem-loop
T1 sequence: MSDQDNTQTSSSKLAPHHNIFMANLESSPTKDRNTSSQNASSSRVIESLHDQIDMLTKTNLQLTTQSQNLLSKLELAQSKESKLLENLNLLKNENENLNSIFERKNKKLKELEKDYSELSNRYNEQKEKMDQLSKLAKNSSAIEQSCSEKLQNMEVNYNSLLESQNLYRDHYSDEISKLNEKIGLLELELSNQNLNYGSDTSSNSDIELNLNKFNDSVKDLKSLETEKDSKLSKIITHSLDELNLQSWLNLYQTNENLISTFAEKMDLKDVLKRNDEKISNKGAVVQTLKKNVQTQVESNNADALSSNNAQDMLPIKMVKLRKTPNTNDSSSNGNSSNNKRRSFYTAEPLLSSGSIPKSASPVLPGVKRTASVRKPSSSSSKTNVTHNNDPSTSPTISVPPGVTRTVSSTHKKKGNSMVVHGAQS

She3p (L364A V367A) = target: T2, She3p (L364A V367A) (Saccharomyces cerevisiae, UniProt P38272 1-425, L364A;V367A); test: as above; details: protein: recombinant; tags: C-terminal His6; label: 32P; stem-loop
T2 sequence: T1 sequence with E348S, L364A, V367A

Measured: binding result

She2p (T191A D192A);She3p, sequence (P36068 whole entry T191A/D192A, one chain of several): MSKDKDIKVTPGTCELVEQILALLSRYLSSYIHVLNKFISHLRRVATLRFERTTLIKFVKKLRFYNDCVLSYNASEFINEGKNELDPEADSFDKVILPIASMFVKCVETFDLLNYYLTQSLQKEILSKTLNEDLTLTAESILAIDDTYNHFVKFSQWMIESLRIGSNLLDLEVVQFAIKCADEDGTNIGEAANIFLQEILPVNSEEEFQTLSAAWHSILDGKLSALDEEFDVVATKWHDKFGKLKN
She2p;She3p (R341E), sequence (P36068 whole entry, stated change not applied, one chain of several): as the sequence (P36068 whole entry T191A/D192A, one chain of several) above, with A191T, A192D counted along it
She2p;She3p (S343E S361E), sequence (P36068 whole entry, stated change not applied, one chain of several): as the sequence (P36068 whole entry T191A/D192A, one chain of several) above, with A191T, A192D counted along it
She2p (E183A D184A G185A);She3p, sequence (P36068 whole entry E183A/D184A/G185A, one chain of several): as the sequence (P36068 whole entry T191A/D192A, one chain of several) above, with E183A, D184A, G185A, A191T, A192D counted along it

B1: ASH1 E3-118 (structured_RNA)
RNA: GAGACAGUAGAGAAUUGAUACAUGGAUAACUGAAUCUCUUUCAACUAAUAAGAGACAUUAUCACGAAACAAUUGUACAUUUCUCUCCUUGUCUGUGCUAAAUAAACUACAAAUAAAAA
binds: She2p;She3p (R341E) | [1] | [2] | [3] | She3p (S348E) | She3p (L364A V367A)

— publication PMC3079584, “A Cytoplasmic Complex Mediates Specific mRNA Recognition and Localization in Yeast”
